Test results from patent publication US20240376185A1 (SMIVET B V, published 2024).

Legend:
[1] = biological target: T1, recombinant tetanus toxin fragment C (rTTC) (Clostridium tetani, UniProt P04958 865-1315); experiment: ELISA, directly coated rTTC, E. coli supernatant
T1 sequence: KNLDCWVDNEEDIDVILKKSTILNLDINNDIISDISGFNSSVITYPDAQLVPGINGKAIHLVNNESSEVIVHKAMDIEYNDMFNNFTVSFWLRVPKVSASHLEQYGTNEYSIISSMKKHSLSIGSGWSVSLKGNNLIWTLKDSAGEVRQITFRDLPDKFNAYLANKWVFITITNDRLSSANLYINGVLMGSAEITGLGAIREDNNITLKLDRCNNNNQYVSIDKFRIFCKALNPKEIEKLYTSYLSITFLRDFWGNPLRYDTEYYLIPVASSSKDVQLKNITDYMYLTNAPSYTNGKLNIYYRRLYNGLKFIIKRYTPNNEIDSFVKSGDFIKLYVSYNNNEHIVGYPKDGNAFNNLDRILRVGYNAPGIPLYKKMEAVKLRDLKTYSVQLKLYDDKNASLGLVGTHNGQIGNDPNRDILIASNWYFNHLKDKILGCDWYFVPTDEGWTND

[2] = biological target: T2, tetanus neurotoxin (TeNT), authentic tetanus holotoxin (Clostridium tetani, UniProt P04958 2-1315); experiment: ELISA, cAb-TT2 captured TeNT, E. coli supernatant
T2 sequence (P04958 2-457 limits assumed, chain 1 of 2): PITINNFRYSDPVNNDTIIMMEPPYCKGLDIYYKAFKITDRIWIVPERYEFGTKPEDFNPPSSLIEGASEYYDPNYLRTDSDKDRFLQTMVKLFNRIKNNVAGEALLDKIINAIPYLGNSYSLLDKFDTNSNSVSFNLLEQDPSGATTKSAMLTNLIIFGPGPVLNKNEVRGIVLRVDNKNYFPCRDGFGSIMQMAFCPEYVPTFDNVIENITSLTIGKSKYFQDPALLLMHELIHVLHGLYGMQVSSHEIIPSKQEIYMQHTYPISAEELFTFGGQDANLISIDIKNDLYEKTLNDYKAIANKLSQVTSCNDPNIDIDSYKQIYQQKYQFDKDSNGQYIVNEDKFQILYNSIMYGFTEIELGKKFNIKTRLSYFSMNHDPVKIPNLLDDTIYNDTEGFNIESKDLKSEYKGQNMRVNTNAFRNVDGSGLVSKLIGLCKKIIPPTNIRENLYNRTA
T2 sequence (P04958 458-1315 limits assumed, chain 2 of 2): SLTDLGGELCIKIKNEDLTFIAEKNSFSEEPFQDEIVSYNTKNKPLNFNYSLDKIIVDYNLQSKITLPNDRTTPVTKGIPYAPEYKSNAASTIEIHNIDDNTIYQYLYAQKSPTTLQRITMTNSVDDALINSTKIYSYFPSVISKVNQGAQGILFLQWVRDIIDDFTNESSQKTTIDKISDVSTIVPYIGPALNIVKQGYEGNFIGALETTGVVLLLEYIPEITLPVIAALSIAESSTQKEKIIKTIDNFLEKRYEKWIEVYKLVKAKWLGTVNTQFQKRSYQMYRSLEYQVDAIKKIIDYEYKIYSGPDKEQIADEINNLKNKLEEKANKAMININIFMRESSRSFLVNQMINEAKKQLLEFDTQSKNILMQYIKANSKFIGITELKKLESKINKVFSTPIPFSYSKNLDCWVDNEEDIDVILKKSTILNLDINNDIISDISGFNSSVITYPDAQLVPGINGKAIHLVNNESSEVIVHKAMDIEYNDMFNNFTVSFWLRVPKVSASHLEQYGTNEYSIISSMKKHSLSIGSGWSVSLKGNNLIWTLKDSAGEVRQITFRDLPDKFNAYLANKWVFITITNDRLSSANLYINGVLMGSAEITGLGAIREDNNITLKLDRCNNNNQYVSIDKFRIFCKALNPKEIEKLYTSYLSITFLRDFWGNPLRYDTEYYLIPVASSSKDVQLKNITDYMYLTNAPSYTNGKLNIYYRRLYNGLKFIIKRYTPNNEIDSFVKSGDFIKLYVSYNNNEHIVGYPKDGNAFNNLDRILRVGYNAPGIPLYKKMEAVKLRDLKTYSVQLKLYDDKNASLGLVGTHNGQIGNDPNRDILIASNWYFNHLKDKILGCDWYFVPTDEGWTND

[3] = biological target: T2, tetanus neurotoxin (TeNT), authentic …; experiment: ELISA, directly coated TeNT, E. coli supernatant
[4] = biological target: T2, tetanus neurotoxin (TeNT), authentic …; experiment: GT1b-TeNT inhibition ELISA (no SDA: 1.302, 1.257)
[5] = biological target: T3, tetanus neurotoxin (TeNT), authentic tetanus holotoxin (Clostridium tetani, UniProt P04958 2-1315); experiment: ELISA, directly coated TeNT, biotinylated binder
T3 sequence (P04958 2-457 limits assumed, chain 1 of 2): as the sequence (P04958 2-457 limits assumed, chain 1 of 2) above
T3 sequence (P04958 458-1315 limits assumed, chain 2 of 2): as the sequence (P04958 458-1315 limits assumed, chain 2 of 2) above

[6] = biological target: T4, recombinant tetanus toxin fragment C (rTTC) (Clostridium tetani, UniProt P04958 865-1315); experiment: ELISA, directly coated rTTC, unlabelled binder
T4 sequence: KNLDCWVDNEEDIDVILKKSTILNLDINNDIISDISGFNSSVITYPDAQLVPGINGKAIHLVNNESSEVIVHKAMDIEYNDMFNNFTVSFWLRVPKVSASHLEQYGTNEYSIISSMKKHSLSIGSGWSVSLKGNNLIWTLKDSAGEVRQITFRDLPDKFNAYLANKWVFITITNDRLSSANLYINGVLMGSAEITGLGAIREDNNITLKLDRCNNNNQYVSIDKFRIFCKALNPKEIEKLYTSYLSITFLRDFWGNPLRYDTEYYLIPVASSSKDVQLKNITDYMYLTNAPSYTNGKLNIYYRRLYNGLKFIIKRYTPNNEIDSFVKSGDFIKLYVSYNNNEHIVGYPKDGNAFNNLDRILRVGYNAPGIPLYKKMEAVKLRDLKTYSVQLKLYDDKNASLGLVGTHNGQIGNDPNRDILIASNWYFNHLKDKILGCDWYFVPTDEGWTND

[7] = biological target: T3, tetanus neurotoxin (TeNT), authentic …; experiment: ELISA, TeNT captured with cAb-TT2, unlabelled binder
[8] = biological target: T3, tetanus neurotoxin (TeNT), authentic …; experiment: GT1b-TeNT inhibition ELISA, EC at A450 0.59
[9] = biological target: T3, tetanus neurotoxin (TeNT), authentic …; experiment: GT1b-TeNT inhibition ELISA, unlabelled binder
[10] = biological target: T3, tetanus neurotoxin (TeNT), authentic …; experiment: ELISA, TeNT captured with cAb-TT2, biotinylated binder
[11] = biological target: T3, tetanus neurotoxin (TeNT), authentic …; experiment: ELISA, directly coated TeNT, unlabelled binder

B1: SVT20 (VHH)
VHH: QVQLQQSGGGLVQAGGSLRLSCAASGRTMSSYAMGWFRQAPGKQREFVAAISRSGGNTYYTDSVKGRFTISRDNAKNTLYLQMNSLKPEETAVYYCAADPNLMYESKWKYRALEAWGQGTLVTVSS
[1]
  absorbance at 450 nm: 0.165 A450
[2]
  absorbance at 450 nm: 0.685 A450
[3]
  absorbance at 450 nm: 1.08 A450
[4]
  absorbance at 450 nm: 0.132 A450

B2: SVT20L (VHH)
VHH: QVQLQQSGGGLVQAGGSLRLSCAASGRTMSSYAMGWFRQAPGKQREFVAAISRSGGNTYYTDSVKGRFTISRDNAKNTLYLQMNSLKPEETAVYYCAADPNLMYESKWKYRALEAWGQGTLVTVSS
[5]
  EC resulting in A450 0.4: 2.1 ng/mL
  maximal absorbance at 450 nm: 1.2
[6]
  maximal absorbance at 450 nm: 0.967
[7]
  EC resulting in A450 0.15: 3.1 ng/mL
  maximal absorbance at 450 nm: 0.327
[8]
  concentration giving A450 of 0.59: 0.039 µg/mL
[9]
  minimal absorbance at 450 nm: 0.117
[10]
  EC resulting in A450 0.2: 4.5 ng/mL
  maximal absorbance at 450 nm: 0.535
[11]
  EC resulting in A450 0.2: 1.2 ng/mL
  maximal absorbance at 450 nm: 1.54

B3: SVT34 (VHH)
VHH: QVQLQESGGGLVQPGGSLRLSCAASGRTISSYAMGWFRQAPGKQREFVAAISRSGGNTYYTDSVKGRFIISRDNAKNTLYLQMNNLKPEETAVYYCAADPNLMYESKWKYRALEAWGQGTLVTVSS
[1]
  absorbance at 450 nm: 0.16 A450
[2]
  absorbance at 450 nm: 0.483 A450
[3]
  absorbance at 450 nm: 1.43 A450
[4]
  absorbance at 450 nm: 0.117 A450

B4: SVT31L (VHH)
VHH: QVQLQESGGGSVQAGGSLTLSCAASEFSYNDYTIAWFRRAAGKGRVEDGEGVASITKSYDRAYDNRIHYADSVKGRFTISRDNAKNTVYLQMTSLNPSDTAVYYCALDITPPGGIGASLTEGFLFDYWGQGTQVTVSS
[5]
  EC resulting in A450 0.4: 0.98 ng/mL
  maximal absorbance at 450 nm: 1.43
[6]
  maximal absorbance at 450 nm: 0.483
[7]
  EC resulting in A450 0.15: 4.3 ng/mL
  maximal absorbance at 450 nm: 0.27
[8]
  concentration giving A450 of 0.59: 0.986 µg/mL
[9]
  minimal absorbance at 450 nm: 0.568
[10]
  EC resulting in A450 0.2: 1.5 ng/mL
  maximal absorbance at 450 nm: 1.03
[11]
  EC resulting in A450 0.2: 2.4 ng/mL
  maximal absorbance at 450 nm: 1.32

B5: SVT08 (VHH)
VHH: QVQLQESGGGSVQAGGSLRLSCTASEFSYNDYTIAWFRRAAGKGRVEDGEGVASITTSYDRAYDNRIHYGDSVKGRFTISRDNAKNTVYLQMTNLNPSDTAVYYCGLDITPPGGIGASLTEGFLFDYWGQGTQVTVSS
[1]
  absorbance at 450 nm: 0.13 A450
[2]
  absorbance at 450 nm: 0.51 A450
[3]
  absorbance at 450 nm: 1.07 A450
[4]
  absorbance at 450 nm: 0.746 A450

B6: SVT06 (VHH)
VHH: QVQLQESGGGSVQAGGSLRLSCTASELSYDDYTIAWFRRAAGEGRVEDGEGVASITKSYDRAYDNKINYGHSVKGRFTISRDNAKNTVYLQMTDLLPSDTAVYYCALDITPPGGVGASLTEGFLFDYWGQGTQVTVSS
[1]
  absorbance at 450 nm: 0.105 A450
[2]
  absorbance at 450 nm: 0.683 A450
[3]
  absorbance at 450 nm: 1.04 A450
[4]
  absorbance at 450 nm: 0.72 A450

B7: SVT31 (VHH)
VHH: QVQLQESGGGSVQAGGSLTLSCAASEFSYNDYTIAWFRRAAGKGRVEDGEGVASITKSYDRAYDNRIHYADSVKGRFTISRDNAKNTVYLQMTSLNPSDTAVYYCALDITPPGGIGASLTEGFLFDYWGQGTQVTVSS
[1]
  absorbance at 450 nm: 0.218 A450
[2]
  absorbance at 450 nm: 1.09 A450
[3]
  absorbance at 450 nm: 1.38 A450
[4]
  absorbance at 450 nm: 0.105 A450

B8: SVT13 (VHH)
VHH: QVQLQESGGGLVQAGGSLRLSCAVSGTNFDDYAIGWFRQAPGKRREAVACISKTDGVTRYGNGVKGRFTISSDEARNTVFLQMNDLKDEDTAIYYCIGDFKSCGMGYKPIDHWGRGIQVTVSS
[1]
  absorbance at 450 nm: 0.128 A450
[2]
  absorbance at 450 nm: 0.165 A450
[3]
  absorbance at 450 nm: 0.762 A450
[4]
  absorbance at 450 nm: 0.196 A450

B9: SVT16 (VHH)
VHH: QVQLQESGGGSVQAGDSLRLSCAASGRTISNYAMGWFRQAPGKQREFVAAISRSDNTYYTDSVKGRFTISRDNAKNTLYLQMNSLKPEETAVYYCAADPNLMYESKWKYRALEAWGQGTLVTVSS
[1]
  absorbance at 450 nm: 0.151 A450
[2]
  absorbance at 450 nm: 0.736 A450
[3]
  absorbance at 450 nm: 1.04 A450
[4]
  absorbance at 450 nm: 0.12 A450

B10: SVT25L (VHH)
VHH: QVQLQESGGGLVQAGGSLRLSCAASGRTISVYAMGWFRQAPGKQREFVAAISRSDNTYYTDSVKGRFTISRDNVKNTLYLQMNSLKPEETAVYYCAADPNLMYETKWKYRALEAWGQGTLVTVSS
[5]
  EC resulting in A450 0.4: 43 ng/mL
  maximal absorbance at 450 nm: 0.985
[6]
  maximal absorbance at 450 nm: 0.936
[7]
  EC resulting in A450 0.15: 6.4 ng/mL
  maximal absorbance at 450 nm: 0.362
[8]
  concentration giving A450 of 0.59: 0.133 µg/mL
[9]
  minimal absorbance at 450 nm: 0.106
[10]
  EC resulting in A450 0.2: 84 ng/mL
  maximal absorbance at 450 nm: 0.302
[11]
  EC resulting in A450 0.2: 3.6 ng/mL
  maximal absorbance at 450 nm: 1.56

B11: SVT25 (VHH)
VHH: QVQLQESGGGLVQAGGSLRLSCAASGRTISVYAMGWFRQAPGKQREFVAAISRSDNTYYTDSVKGRFTISRDNVKNTLYLQMNSLKPEETAVYYCAADPNLMYETKWKYRALEAWGQGTLVTVSS
[1]
  absorbance at 450 nm: 0.211 A450
[2]
  absorbance at 450 nm: 0.427 A450
[3]
  absorbance at 450 nm: 1.14 A450
[4]
  absorbance at 450 nm: 0.139 A450

B12: SVT29L (VHH)
VHH: QVQLQESGGGLVQTGGSLTLSCRAYGRAFDNYHFGWFRQAPGKDREFVASISWKGGSTYRANFALGRFTSSVNRGESSVYLHMSGLTPEDTATYYCAAHDGGDWNYHTGMDYWGKGILVTVSS
[5]
  EC resulting in A450 0.4: 6.9 ng/mL
  maximal absorbance at 450 nm: 1.13
[6]
  maximal absorbance at 450 nm: 0.58
[7]
  EC resulting in A450 0.15: 6.3 ng/mL
  maximal absorbance at 450 nm: 0.429
[8]
  concentration giving A450 of 0.59: 0.114 µg/mL
[9]
  minimal absorbance at 450 nm: 0.135
[10]
  EC resulting in A450 0.2: 14 ng/mL
  maximal absorbance at 450 nm: 0.596
[11]
  EC resulting in A450 0.2: 2.6 ng/mL
  maximal absorbance at 450 nm: 1.52

B13: SVT15 (VHH)
VHH: QVQLQESGGGLVQTGGSLRLSCRASGRAFANYHFGWFRQAPGKDREFVASISWKGGSTYYANFALGRFTSSVDRAESSVYLQMSGLTPEDTATYYCAAHDGGDWNYHTGMDYWGKGILVTVSS
[1]
  absorbance at 450 nm: 0.099 A450
[2]
  absorbance at 450 nm: 0.68 A450
[3]
  absorbance at 450 nm: 1.03 A450
[4]
  absorbance at 450 nm: 0.19 A450

B14: SVT29 (VHH)
VHH: QVQLQESGGGLVQTGGSLTLSCRAYGRAFDNYHFGWFRQAPGKDREFVASISWKGGSTYRANFALGRFTSSVNRGESSVYLHMSGLTPEDTATYYCAAHDGGDWNYHTGMDYWGKGILVTVSS
[1]
  absorbance at 450 nm: 0.111 A450
[2]
  absorbance at 450 nm: 0.868 A450
[3]
  absorbance at 450 nm: 1.28 A450
[4]
  absorbance at 450 nm: 0.152 A450

B15: SVT05L (VHH)
VHH: QVQLQESGGGLVQPGGSLRLSCSASGFSFTDDYGIGWFRSGPGKGREAVAPIADREAVAAIALSDGNTYYSASAKGRFTISRDNAKSTAYLQMNNLKPEDTATYYCAADFWGYGMSWPMATLWEYWGQGIQVTVSS
[5]
  EC resulting in A450 0.4: 0.98 ng/mL
  maximal absorbance at 450 nm: 1.26
[6]
  maximal absorbance at 450 nm: 0.604
[7]
  EC resulting in A450 0.15: 0.86 ng/mL
  maximal absorbance at 450 nm: 0.375
[8]
  concentration giving A450 of 0.59: > 1 µg/mL
[9]
  minimal absorbance at 450 nm: 0.655
[10]
  EC resulting in A450 0.2: 1.7 ng/mL
  maximal absorbance at 450 nm: 0.622
[11]
  EC resulting in A450 0.2: 0.51 ng/mL
  maximal absorbance at 450 nm: 1.29
